From US20100248309A1

What follows are substances tested against elastase (assay: Given as 'coupling constant'. Second-order association with elastase, 8 nM each, residual elastase activity on succinyl-Ala-Ala-Ala-pNA at 410 nm over 1-10 min (Beatty et al.)).

“wild type E. coli recombinant AT (human alpha-1-antitrypsin) (from UniProt P01009 26-418)” and “Mutant recombinant AT K168C/F189C (with disulfide bond) (human alpha-1-antitrypsin mutein) (from UniProt P01009 25-418)” are within 1.5-fold of each other in kon: 1.6e+06 M⁻¹ s⁻¹ for the first, 1.8e+06 M⁻¹ s⁻¹ for the second.

“Human blood plasma AT (alpha-1-antitrypsin, A9204, Sigma) (from UniProt P01009 25-418)” and “Mutant recombinant AT F51L/M374I (human alpha-1-antitrypsin mutein, Korean Patent No. 133252) (from UniProt P01009 25-418)” are the same in kon: 1.7e+06 M⁻¹ s⁻¹ for the first, 1.7e+06 M⁻¹ s⁻¹ for the second.
